Laboratory results as given in article PMC9239104, “Scaffolding Protein GspB/OutB Facilitates Assembly of the Dickeya dadantii Type 2 Secretion System by Anchoring the Outer Membrane Secretin Pore to the Inner Membrane and to the Peptidoglycan Cell Wall” (mBio, 2022).

T1: OutD N0-N1-N2 domains (residues 1 to 258 of signal peptide-less OutD), purified (Dickeya dadantii, UniProt Q01565 28-285)
T1 construct: secretin OutD (GspD) of Dickeya dadantii, N0, N1 and N2 domains, residues A1 to V258; numbers count on: the mature protein
T1 sequence: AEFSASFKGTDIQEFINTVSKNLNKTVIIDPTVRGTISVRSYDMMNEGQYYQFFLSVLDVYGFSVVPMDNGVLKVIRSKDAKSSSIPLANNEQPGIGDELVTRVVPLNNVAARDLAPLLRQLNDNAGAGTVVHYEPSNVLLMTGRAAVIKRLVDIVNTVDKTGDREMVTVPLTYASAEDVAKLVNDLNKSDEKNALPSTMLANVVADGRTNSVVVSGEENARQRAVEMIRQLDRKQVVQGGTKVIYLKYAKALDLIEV

B1: OutB HR domain (residues P112 to K220), purified (domain or fragment)
chain: PAKLVTGWQTAKPGELPYIAFSAHVYTSAPDKRSVTLNGERYREGDSPYQGLVIEQIEQDMVIFSFNGEPFILDSLQDWPGGKPGDDAAQGNEQEPTSKPEQTVRTTKK
notes: OutB (GspB) of Dickeya dadantii, conserved periplasmic domain, residues 112 to 220; uniformly 15N-labelled where it was the observed protein; the NMR methods speak of residues 112 to 193, the results and legends of 112 to 220; also called OutB^112–220; 15N-labeled OutB HR domain; source: E. coli BL21(DE3), purified (glutathione Sepharose, on-column PreScission cleavage, Superdex S200); not shown: …
B2: OutD N0 domain (residues 1 to 85 of signal peptide-less OutD), purified (domain or fragment)
chain: AEFSASFKGTDIQEFINTVSKNLNKTVIIDPTVRGTISVRSYDMMNEGQYYQFFLSVLDVYGFSVVPMDNGVLKVIRSKDAKSSS
notes: secretin OutD (GspD) of Dickeya dadantii, N0 domain, residues A1 to S85; numbers count on: the mature protein; 15N-labelled in the reciprocal experiment

Key:
[1] = target: OutD N0 domain (residues 1 to 85 of signal peptide-less OutD), purified (Dickeya dadantii) (UniProt Q01565); test: NMR titration; competition: 15N OutB HR 40 μM, unlabelled OutD N0 60 μM, unlabelled OutC HR 120, 240 and 360 μM; HSQC chemical shifts
[2] = target: T1, OutD N0-N1-N2 domains (residues 1 to …); test: NMR titration; 1H-15N HSQC of a 15N-labelled domain alone or with the unlabelled partner; each protein 200 μM; 15°C, 20 mM Tris-HCl pH 7.0, 10% D2O; settings: both partners purified
[3] = target: B1; test: NMR titration; competition: 15N OutB HR 40 μM, unlabelled OutD N0 60 μM, unlabelled OutC HR 120, 240 and 360 μM; HSQC chemical shifts; settings: both partners purified

## OutC HR domain (residues A78 to S158) (domain or fragment)
[1]
  Kd: 1000 µM

## B1
[2]
  binding result: binds

## B2
[3]
  Kd: ~10 µM
